The values below come from the supplement of paper PMC7125110.

± gives the standard error. Variants at the floor of the assay were thinned out. A value given as a limit tells only on which side of the number the result lay.

Sequences and labels used below:
B1: glmS ribozyme (parent)
chain: AUAAAAGCGCCAGAACUACAGAAAUGUAGUUGACGAGGAGGAGGUUUAUCGAAUUUUCGGCGGAUGCCUCCAAA

Variants of B1 are the subject of one data set. Briefly: self-cleavage kobs at 2500 uM GlcN6P; higher = faster cleavage; RNA array. The settings on record: with glucosamine-6-phosphate. The gist of the method: (§1)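 Glucosamine-6-phosphate, from 40 μM to 10 mM in HEPES/KCl/Mg(OAc)2 buffer, was flowed over sequenced MiSeq chips carrying barcoded ribozyme variants transcribed in situ by E. coli RNA polymerase. A hybridised Cy3 probe tracked the variants at 37 °C as tiles were imaged over ~14 h. kobs, kcat and KM were obtained by fitting normalised per-tile medians to exponential decays and then applying weighted Michaelis–Menten fits across concentrations.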
With C11A U31A A33G, the “self-cleavage kobs at 2500 uM GlcN6P” value is under 1e-05 s⁻¹. The same measure, in the same setting: the value for G9A G37A G38U was under 1e-05 s⁻¹; that for C8G A12U A39U was under 1e-05 s⁻¹; that for G35A G41A U54G was under 1e-05 s⁻¹. In the case of U56A G59A, the “self-cleavage kobs at 2500 uM GlcN6P” value is 5.17e-05 ± 1.7e-05 s⁻¹. Still for that read-out and setting: the value for A12G A53G U69C was 0.000297 ± 0.00012 s⁻¹.

With C50A U65G U69G C70A, the “self-cleavage kobs at 2500 uM GlcN6P” value worked out at 8e-05 ± 2.9e-05 s⁻¹.

In the case of U30C C34G G44C U57G C70U, the “self-cleavage kobs at 2500 uM GlcN6P” value was under 1e-05 s⁻¹. In the case of C11U G44U U69G, the “self-cleavage kobs at 2500 uM GlcN6P” value is under 1e-05 s⁻¹.

On to A6C C16G U45G G59U, for which the “self-cleavage kobs at 2500 uM GlcN6P” value was under 1e-05 s⁻¹. On to U47G U56C C71A, for which the “self-cleavage kobs at 2500 uM GlcN6P” value was determined as 5.07e-05 ± 2.5e-05 s⁻¹. As for A15C G66C, the “self-cleavage kobs at 2500 uM GlcN6P” value is 0.000277 ± 0.00013 s⁻¹. Same read-out and setting: the value for G7C G9U G59U was under 1e-05 s⁻¹; that for C11U U31C C50A was under 1e-05 s⁻¹. Still for that read-out and setting: the same measure for G35C G37A U49A A52G A53U U56G C61G: under 1e-05 s⁻¹; for A52C G59C A64U: under 1e-05 s⁻¹; for A15U A33U G59U: under 1e-05 s⁻¹. The same measure, in the same setting: the same measure for C10G C34A G37A G60U: under 1e-05 s⁻¹; for C10G G60C C61A: under 1e-05 s⁻¹; for A33U C34A G44U A52C: under 1e-05 s⁻¹. Take G29U U31C U54C: the “self-cleavage kobs at 2500 uM GlcN6P” value turned out to be 0.000161 ± 3.5e-05 s⁻¹. The same measure, in the same setting: the value for A6U A15U A36C was under 1e-05 s⁻¹. Consider A12U U31A C50G C61U, for which the “self-cleavage kobs at 2500 uM GlcN6P” value was found to be 6.19e-05 ± 2.1e-05 s⁻¹.

As for G7C A52U U54G C61U, the “self-cleavage kobs at 2500 uM GlcN6P” value was under 1e-05 s⁻¹.

In the case of C34G G51U U56C C67U, the “self-cleavage kobs at 2500 uM GlcN6P” value is under 1e-05 s⁻¹. Take A6C G29U G40A U49G C68U: the “self-cleavage kobs at 2500 uM GlcN6P” value is under 1e-05 s⁻¹. On the same count and under the same terms, the same measure for G7U G43A U47A U57C A64U: under 1e-05 s⁻¹. The same measure, in the same setting: the same measure for G9C C10U A36U A48U C71G: under 1e-05 s⁻¹. Same read-out and setting: the same measure for A14G C16U A36G: 4.05e-05 ± 1.5e-05 s⁻¹; for U30G G43U U47A U56A: under 1e-05 s⁻¹.

In the case of A14C G29C G44C U49G G59C C71U, the “self-cleavage kobs at 2500 uM GlcN6P” value is under 1e-05 s⁻¹. The same measure, in the same setting: the same measure for G7A A14G G38A: under 1e-05 s⁻¹; for C34G A39G G60U: under 1e-05 s⁻¹. On the same count and under the same terms, the value for G13C A36G A64U C70G was under 1e-05 s⁻¹; that for A15G G32C G37U C70A was 0.000633 ± 0.00028 s⁻¹.

With A15G U31A A53G, the “self-cleavage kobs at 2500 uM GlcN6P” value amounted to 0.01 ± 0.0031 s⁻¹. Still for that read-out and setting: the same measure for G9C A39G C50U C71A: under 1e-05 s⁻¹. Take G38A G41U G43C A53U G59A A64C: the “self-cleavage kobs at 2500 uM GlcN6P” value was under 1e-05 s⁻¹. Regarding A42G A52C A53G U54G, the “self-cleavage kobs at 2500 uM GlcN6P” value was under 1e-05 s⁻¹. On to A14U U56A G63A, for which the “self-cleavage kobs at 2500 uM GlcN6P” value is under 1e-05 s⁻¹. Take A14G U30A G41C: the “self-cleavage kobs at 2500 uM GlcN6P” value turned out to be 0.000337 ± 0.00013 s⁻¹.

Take A39C G59A G63U: the “self-cleavage kobs at 2500 uM GlcN6P” value was under 1e-05 s⁻¹. Still for that read-out and setting: the value for G9U G41A C67U was under 1e-05 s⁻¹; that for G41U A52U U55A C70U was 6.63e-05 ± 1.6e-05 s⁻¹; that for U54G C67G C70U C71U was 0.000105 ± 1.9e-05 s⁻¹. Turning to A6U A12C C34U A48G C61G A64U, the “self-cleavage kobs at 2500 uM GlcN6P” value was under 1e-05 s⁻¹. In the case of G7A G51U U54G, the “self-cleavage kobs at 2500 uM GlcN6P” value is under 1e-05 s⁻¹.

For the variant C8A U46G U55A, the “self-cleavage kobs at 2500 uM GlcN6P” value is under 1e-05 s⁻¹. Turning to A14C U55A C68A, the “self-cleavage kobs at 2500 uM GlcN6P” value stood at 6.41e-05 ± 2.5e-05 s⁻¹.

As to C8A G9U A15C U31A G32A C70A, the “self-cleavage kobs at 2500 uM GlcN6P” value is under 1e-05 s⁻¹. As to C34U G40A U57A, the “self-cleavage kobs at 2500 uM GlcN6P” value was under 1e-05 s⁻¹. Still for that read-out and setting: the value for G13U G38U U54G G62A was under 1e-05 s⁻¹.

Regarding G7C G51U A53U G60U, the “self-cleavage kobs at 2500 uM GlcN6P” value is under 1e-05 s⁻¹.

In the case of A15U G41U A42G U57C C70A, the “self-cleavage kobs at 2500 uM GlcN6P” value came out at 7.37e-05 ± 2.1e-05 s⁻¹. For A12G G29C G35U A39U G41C A64G, the “self-cleavage kobs at 2500 uM GlcN6P” value was under 1e-05 s⁻¹. Same read-out and setting: the same measure for A53C C61A G62U: under 1e-05 s⁻¹; for U30G C34A G60U: under 1e-05 s⁻¹; for A14C G32U U47C C67G: under 1e-05 s⁻¹. The same measure, in the same setting: the same measure for G44U A52C U56C G63A C67U: under 1e-05 s⁻¹; for C34A A48C U54A: under 1e-05 s⁻¹.

As to U30C C58G C68U, the “self-cleavage kobs at 2500 uM GlcN6P” value was found to be 0.000104 ± 2.9e-05 s⁻¹. U46G C61A: the “self-cleavage kobs at 2500 uM GlcN6P” value was under 1e-05 s⁻¹. Turning to G7C G13U U31G G37C G59A G60U, the “self-cleavage kobs at 2500 uM GlcN6P” value was under 1e-05 s⁻¹. Take G37U A53U U57A: the “self-cleavage kobs at 2500 uM GlcN6P” value was under 1e-05 s⁻¹. Still for that read-out and setting: the same measure for G29U U54A C58A: 0.000128 ± 3.8e-05 s⁻¹. On to G13U U47A C50U, for which the “self-cleavage kobs at 2500 uM GlcN6P” value is under 1e-05 s⁻¹.

Turning to U45A U54G C68G, the “self-cleavage kobs at 2500 uM GlcN6P” value came out at 9.7e-05 ± 3.2e-05 s⁻¹.

G13U A39G C71A: the “self-cleavage kobs at 2500 uM GlcN6P” value amounted to 0.000144 ± 4.9e-05 s⁻¹.

Turning to U31G G37A C67U, the “self-cleavage kobs at 2500 uM GlcN6P” value was determined as 5.28e-05 ± 1.6e-05 s⁻¹. Same read-out and setting: the value for A52C C58U G59U was under 1e-05 s⁻¹; that for A1C U57C was 9.88e-05 ± 2.4e-05 s⁻¹. Still for that read-out and setting: the same measure for A6U G35U G51U: under 1e-05 s⁻¹; for A33C G40A G43C A52C: under 1e-05 s⁻¹; for A6C G7C G63A: under 1e-05 s⁻¹.

As to A6C G44U U54G U57C, the “self-cleavage kobs at 2500 uM GlcN6P” value is under 1e-05 s⁻¹. On the same count and under the same terms, the value for A6C G7U U54C was under 1e-05 s⁻¹. Regarding A12C A36G C71U, the “self-cleavage kobs at 2500 uM GlcN6P” value is under 1e-05 s⁻¹.

Take G35C A42U A48C G63U: the “self-cleavage kobs at 2500 uM GlcN6P” value is under 1e-05 s⁻¹. On to A6C A39G G51C, for which the “self-cleavage kobs at 2500 uM GlcN6P” value was under 1e-05 s⁻¹. A52U A53C C67G: the “self-cleavage kobs at 2500 uM GlcN6P” value was under 1e-05 s⁻¹. The same measure, in the same setting: the value for G13U U47G C67U was 8.34e-05 ± 2.2e-05 s⁻¹.

The variants in another data set derive from B1. Briefly: self-cleavage kobs at 10000 uM GlcN6P; higher = faster cleavage; RNA array. The following applies: with glucosamine-6-phosphate. Put shortly:
as §1
For the variant U56A G59A, the “self-cleavage kobs at 10000 uM GlcN6P” value was determined as 4.86e-05 ± 9.7e-06 s⁻¹.

On to G35C G37A U49A A52G A53U U56G C61G, for which the “self-cleavage kobs at 10000 uM GlcN6P” value was under 1e-05 s⁻¹. As for G9C C10U A36U A48U C71G, the “self-cleavage kobs at 10000 uM GlcN6P” value is under 1e-05 s⁻¹. The same measure, in the same setting: the same measure for G41U A52U U55A C70U: 9.97e-05 ± 2.6e-05 s⁻¹. With C8A U46G U55A, the “self-cleavage kobs at 10000 uM GlcN6P” value is under 1e-05 s⁻¹. As for U46G C61A, the “self-cleavage kobs at 10000 uM GlcN6P” value was under 1e-05 s⁻¹. On the same count and under the same terms, the value for G13U A39G C71A was 0.000285 ± 6.4e-05 s⁻¹. Regarding U31G G37A C67U, the “self-cleavage kobs at 10000 uM GlcN6P” value came to 0.000189 ± 3.7e-05 s⁻¹. Turning to G13U U47G C67U, the “self-cleavage kobs at 10000 uM GlcN6P” value stood at 4.31e-05 ± 2e-05 s⁻¹.
